The source of these data is a protein production outcome set (Wang et al. 2014).

A short description of the series: label from the status in PepcDB records.
For “MPLTNNSTTKPQEIAAIDLGSNSFHMVIARVVNGALQVLGRLKQRVHLADGLDSNNMLSEEAIERGLACLALFAERLQGFSPDNVCIVGTHTLRQAANAETFLKRAAEVIPYPIEIISGQEEARLIFMGVEHTQPEKGRKLVIDIGGGSTEMVIGEDFEPLLVESRRMGCVSFAQQFFPGGEISKNNFRRARLAAAQKLENLAWQYRIQGWQYALGASGTIKATYEVLVEMGEKDGLITPERLEMLVENVLQFKQFSALSLPGLSEDRQSVFVPGLAILCGVFDALAIKTLRLSDGALREGVLYEMEGRFRHQDIRQRTAKSLADHYNIDREQARRVLETTEQLYTQWLAQNTKLVQPQLEALLKWAAMLHEVGLSINHSGMHRHSAYILQNTNLPGFNQEQQTLLATLVRMHRKAIKLDELPRLNLFKKKYYLPLIQLLRLSTLLNNQRQSTTTPESLRLITDDSHWTLRFPHGYLTQNSLVQLDFEREQAYWDDVVGWKLVIEEEEPDEAAKVAPEE”, the protein production result is given as “not failed”.
The value for “MPLVKRNIDPRHLCHTALPRGIKNELECVTNISLANIIRQLSSLSKYAEDIFGELFNEAHSFSFRVNSLQERVDRLSVSVTQLDPKEEELSLQDITMRKAFRSSTIQDQQLFDRKTLPIPLQETYDVCEQPPPLNILTPYRDDGKEGLKFYTNPSYFFDLW” was “failed”; that for “MPLVTRNIEPRHLCRQTLPSVRSELECVTNITLANVIRQLGSLSKYAEDIFGELFTQANTFASRVSSLAERVDRLQVKVTQLDPKEEEVSLQGINTRKAFRSSTIQDQKLFDRNSLPVPVLETYNTCDTPPPLNNLTPYRDDGKEALKFYTDPSYFFDLWKEKMLQDTKDIMKEKRKHRKEKKDNPNRGNVNPRKIKTRKEEWEKMKMGQEFVESKEKLGTSGYPPTLVYQNGSIGCVENVDASSYPPPPQSDSASSPSPSFSEDNLPPPPAEFSYPVDNQRGSGLAGPKRSSVVSPSHPPPAPPLGSPPGPKPGFAPPPAPPPPPPPMIGIPPPPPPVGFGSPGTPPPPSPPSFPPHPDFAAPPPPPPPPAADYPTLPPPPLSQPTGGAPPPPPPPPPPGPPPPPFTGADGQPAIPPPLSDTTKPKSSLPAVSDARSDLLSAIRQGFQLRRVEEQREQEKRDVVGNDVATILSRRIAVEYSDSEDDSSEFDEDDWSD” was “not failed”.
Regarding “MPMDFQILDADYEVVNDSGPVIRLFGRGADGKSVCCFVPDFEPYFYLKASGDLHAVARLIKDTFEQVKKVEIVEKFEPVGYQKTKKEMLRVTTRLPKDVPEIRDEILKIRDVLRAEGDWQVYESDILFRNRFLIDRALGGMVWVSAEGKPVDPVRYLGAGSAWRSRCENFACDSAVLASGLKRVENLAIAPLKYLAFDIECLPLDGGMPSPDVSPIIMISFSFEPEYKGHKTLILLAKPAAGMDGDVLSCMDETEMLNKFFEIICEYDPDIVAGYNHQDFDIPYITERVKALVAKGETINSVVGRDGSPIGYRKFGLITRTEMKGRVVVDALPLVRRAFSLKQYTLRAVSKELLSREKLDVPPLEMEEHWNDSGDKFRKFVDYARRDSELALELVLELRLLDKYIALAQVSGSLLQEIVDGGQTSMVETLLLREFGLKDRVILPKPGDELSAERYDMSSDLKGGEVLEPKKGLLENVLILDYKSLYPTIMMAHNLCYTTVVTRDRPDGKTIKPPSGGEFVPPEVFRGIVPSILEDLLNKRGDTKKRMKRTSDENEHRVLDATQLAIKILLNSFYGYSGYARARLYSLTLANAVTSFGRSNILNTRDLINGRIGKIVLRNSAALLLEEAGKLSPQDRIVELSVAYGDTDSVFVHCKAKGDLSLEEVSLVGNRLSEIVSASLPDPMELEFESVAKRALLIAKKRYALWLFEPRNSGWENKIKVKGMETVRRDWCELTSITLNRVLEFVLIEGDVDKAVEHVRKVVSDVRNLDPGKDAGIIEKLVLTRTLTRKADSYKNKQPHLTVAENLKKRTGIMPSIGTRIPFVITAGKGLFVDRAEDPDYVRENNVPIDVDYYVKKQILPPVERILEVFGVKMSSLDFDAKQKGLFDFEVKKPEAKKQEKSSSQKGTNGKILEKAPEEKARYSENGRVEQRSLFDF”, the protein production entry is given as “failed”.
With “MPMKSWIKTLLITLLAAALCLLFARVVLPPLLVQLIPPSWEGGPWFWVNLLLAGFLAGLVVAPLLRTRRYYPVPLLLLLSVLVVVGNWAQNRCNDAQLQAIEQLERRSASHSNLGISNEEPAPSAPVDVSATPGVWAHEQGDGYGYSCNRPGETQGFLMPQLMSFGINVLGLLLALLIGPGRRRAR” the entry was “failed”.
For the sequence “MPNANEDNPSALSQVQRRAVSELLRVSPVADELARRFQEAGFSLALVGGSVRDALLGRLGNDLDFTTDARPEDVLKIVRPWADAMWEVGIAFGTVGAQKEGYQIEVTTYRSEAYDRTSRKPEVSYGDSIEEDLVRRDFTVNAMAVALPEKEFIDPHGGLDDLAARILRTPGTPEESFSDDPLRMMRAARFAAQLDFEVAPDVVTAMTEMAGRIDIVSAERVRDELNKLVLSAHPRKGLTLLVDTGLADHVLPELPALRLERDEHHRHKDVYDHSLIVLEQAIALEENGPDLTLRLAALLHDIGKPRTRRFEKDGRVSFHHHEVVGAKMTKKRMTALKYSNDLVKDVSRLVELHLRFHGYGTGEWTDSAVRRYVRDAGPLLDRLHKLTRSDCTTRNKRRAAALSRAYDGLEERIAQLQEQEELDAIRPDLDGNQIMEVLGVGPGPVIGQAYKFLLELRLENGPMEYDAAVAALKEWWAEQN”, the protein production result is given as “failed”.
With “MPNELSRSLSPYLLMHANDPVEWRMWSKETLRIATEENRLIFLSIGYSSCHWCHVMHEESFVDPDVAEILNNNYIPVKVDREERPDLDSYFMKVSQVINGNGGWPLNIILLPDARPVFAMTYVPKEDRNGMTGLKTILIQLSQMYLKDPDQFKDQAKAVSDAMEERESV” the entry was “not failed”; with “MPNGPTCAARRARARSALVGGEGFRMEWSGKRVSDGSATRPTVAAWVSGGFGSGESVAAFKALATEAEAGDASAQRRLGLCFRDGLGTDRDIHRAKAWYQRSAAQNDPMAALELGLMLESGLGISSDHGEAGKWYRVALDLWRDRAEGGDALGQFVLGLCHEVGAGVPAAHREALKWYGRSAERGCAHAQWALGRLHEDGLGVVRDYSEAVRCYRAAAFQGHARACFNLGLMAELGLGMVRDADCSASWYGKALEVWRRWAELGDPAAATALAAMYEAGHGVAKDYAVAVCWYRRAARQGNPLAQFELGRLSMEGRGVERNDVEAVGWFRLAAERGHADAQFHLGLMHEHGRGVTRRFEEAFRWYDKAADEGPARRWDAFHRLVPAAGEVPEGCGLGAW”, “failed”; with “MPNHQPVKKFKIIGGACKGLGLNLPNISSTRPTKAIVRESFFNTLQAEINGAHFIEVFSGSASMGLEALSRGAKSAVFFEQNKSAYKTLLENISLFKNRLKKEMEIQTFLDDAFKLLPTLCLKNGVLNIIYLDPPFETSGFLGIYEKCFQALERLLKRFNPKNLLVVFEHESMHEMPKSLVTLAIIKQKKFGKTTLTYFQ”, “failed”.
With “MPNLSCGVDNCAYNQNDMCSLNSIKVNGSFANHSEATCCGSFVEKGGFTNAAVDMGPAEPATSVACEAEKCCYNKNCKCHAESIDISGDYAQHQDNTECSTFRQELEHHHHHH” the entry was “not failed”; with “MPNNVKITSSHRVLMIALLAAAFACYLLVEPYINSIVMAFIISLLMFPVHEWFERKMPKHKNSASLLTCVVLTFIIVIPLLFVFAAIVQQGSVFSQNTYKWVTNGGIQDIFQHPWVIKGLSIVNEYLPFDKIEPKAIAEKIGQFATTFGSNLVAISAKILGDATNFLMDFFLMLFVLFFLLRDHDKIISAIRHILPLSRSQEDRILTEIEQVSKSAVMGSFLTAIAQGLAGGIGMWLAGFPGLFWGTMMGFASFIPVVGTALIWIPAAAYLFLTGDMTWAIFLTAWSVVIVGSIDNLLRPLLMQGSAGMNTLMIFFSLLGGLHLFGLIGLIYGPLIFAVTMVLFNIYEEEFKDFLNQQDNS”, “failed”.
With “MPNQSNESRPFHKDLESILYAHVPLPMFTMDEEGALLNMNEGAMETLRVDWEQNQRSSVFQLFESECRESLYLALATVNKISQVEKVELIKRNGETFETFCLSLQLLPDKQVIAFIAPLIDKGMDPLTGVPIRQEVPRLMERTFQENQAETYVLFLINLDRFKLVNDSLGEGYGDQVLQTLVRRLLWQLPNQQWIARVSGDEFIACAAIKGELPKKETLATYISSIIQQPFQVDEVQFTMTASIGAAVYPMDGKSVEMIWNSLERALRHAKARGGNCVSWFCQELKDEWIHPFRLENDLRRAVENQELELYFQPIFETTTGEHCGEEVLVRWNHPALGVLGPNFFIPVAEEIGLIGVVGKWVLDEACKQKALLIEKEASSVPMSVNLSLRQFLQPDIVDMILDSLNKYGLDPSLLEVEVTERITIDMNRAMKVLQKLRAQGIRVSLDDFGTGYSSLQYISQLPIQKLKIDKSFIAEIGVNSQVEAIISMIIHLGHELDLTVVAEGVETEKQLSFLKEKKCDTVQGYYHAKPLTFSEFKKYLLS” the entry was “failed”; with “MPPGTTLQGGKYRLEQVLGQGGFGITYLGSQTQLGARVAIKELFPSGSTRQSGQYVLPPAGTDPAGWAQAKQDFTAEGRTVARFNHPDIVRVMDLFEENGTAYLVMEFLEGQTLGSAIEKRGPLPPDEVVNIAKRVLGALSVVHSAGMLHRDIKPDNIYLDKAGRTVLIDFGSARTFAAGQTVSHTRLVTPGYAPLEQYSGSAKFGPYTDIYALGATLYHALTGHPPTPATDRTMGTPLAPLPPNTPPALREAIERSLAIKINERPQSTQEVLALLNQVSVAPQSAPAAPAPRPTPPQRNQTFPPAPQPTPQRQPQRPPQPVPQPPAQRRRGPGCGCLFPLLLLGGLALYGMNVLGPLLSPSQTETTTTSEQTQPEPPAQTPTTPTEDPTIPQAPGTTDSGQDWQSGDSIDLGLPGSNGETPAQTDNTATPETTTQGNAGTETNPTTTPETNTSTAPTSGELVVTAPNVTLRSAADAAANSLGTLAAGSTVQILQTQDGWYEVQTTSGQRGWVGTDAALPPVSAEALKALQTAAGQGGDVQLSPGVYRLQEPLVLSQDAHLTGAGRDRTWITSAAGNAVLTTRGNVSLQGVTVGWTGQTPGGALLAEGGTVTLRDARLTGGVRDETRNESGSGLQLSQGAQGDVQGSDLVGNAYGASVSDTAQLKLKDSTLSDNSLGGAIFLDSSGGEVRGSTLERNGGDGLTVRHTAAPVIVDSELRDNGERGLSVEGQAKPTVKRVTASGNTLQGIGVQDDAQPQLSNNKLTGNGQEGLTYADRAGGRASENELSGNQVGIAVQGSAAPELRTNIIRDSRDAGLSYAGQAGGTARGNTITGSAKPGISLWGEAQPTLSSNVIQGGAQSGIVFAEHAGGTLDSNEVLGNALSGLVVRDTAAPEVRGNTFQDNGKAAMVYEGEAGGRVSGNTCQGNGSDVIELHLTSVLAGPDLSGASCAVQTQGNW”, “failed”.
As for “MPPGVAVCFSSLFIRLVCMAFLTSSDKALWHLALPMIFSNITVPLLGLVDTAVIGHLDSPVYLGGVAVGATATSFLFMLLLFLRMSTTGLTAQAYGAKNPQALARTLVQPLLLALGAGALIALLRTPIIDLALHIVGGSEAVLEQARRFLEIRWLSAPASLANLVLLGWLLGVQYARAPVILLVVGNILNIVLDVWLVMGLHMNVQGAALATVIAEYATLLIGLLMVRKILKLRGISGEMLKTAWRGNFRRLLALNRDIMLRSLLLQLCFGAITVLGARLGSDIIAVNAVLMTLLTFTAYALDGFAYAVEAHSGQAYGARDGSQLLDVWRAACRQSGIVALLFSVVYLLAGEHIIALLTSLTQIQQLADRYLIWQVILPVVGVWCYLLDGMFIGATRATEMRNSMAVAAAGFALTLLTLPWLGNHALWLALTVFLALRGLSLAAIWRRHWRNGTWFAAT”, the protein production result was “failed”.
The value for “MPPPIHPSSSAAPGPVPNHLIWAIVSTVLGFCLCCPALISGIVAIVFSSKVNGLLNQGDIDGARRASNTAKTWCIVTSVLAAIGLLINIGMVATGGMQGYMDYMQQLQHMQ” was “failed”.
The value for “MPPPLPYDAMRSVWTDTAAPAMATAPLAGHADCDVAIVGAGITGLSAALHLAERGLRACVLEARDPGWGASGRNGGQVIPGIKHDPDEILARHGRERGEPLLHMVGTAADTVFDLIDRYGLDLVQAQIRLAAGERLDRVVPADLQPSGHAIELRVYAEDPVRFIPSPGTLAVFELPQGPGVRTETGYHAGNAVSPHYDPMIAKIIVHGADRAQAIARAEQALADTEIAGVKTNLPFLARALAFEPWRQGRLHTGIVARTLAEPAPAALTALEHHHHHH” was “failed”.
